Laboratory results reported in patent US20220332804A1 (CSL INNOVATION, published 2022).

How the values were obtained:
Assay in all cases: SPR, antibody captured, C2 as analyte;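 also: biacore SPR at 37 °C, anti-C2 mAbs captured via goat anti-human IgG on CM5 chips, double-referenced sensorgrams fit to a 1:1 kinetic or steady-state model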
human C2 Q447A = molecular target: T1, human C2 Q447A (human, UniProt P06681 21-752)
T1 sequence: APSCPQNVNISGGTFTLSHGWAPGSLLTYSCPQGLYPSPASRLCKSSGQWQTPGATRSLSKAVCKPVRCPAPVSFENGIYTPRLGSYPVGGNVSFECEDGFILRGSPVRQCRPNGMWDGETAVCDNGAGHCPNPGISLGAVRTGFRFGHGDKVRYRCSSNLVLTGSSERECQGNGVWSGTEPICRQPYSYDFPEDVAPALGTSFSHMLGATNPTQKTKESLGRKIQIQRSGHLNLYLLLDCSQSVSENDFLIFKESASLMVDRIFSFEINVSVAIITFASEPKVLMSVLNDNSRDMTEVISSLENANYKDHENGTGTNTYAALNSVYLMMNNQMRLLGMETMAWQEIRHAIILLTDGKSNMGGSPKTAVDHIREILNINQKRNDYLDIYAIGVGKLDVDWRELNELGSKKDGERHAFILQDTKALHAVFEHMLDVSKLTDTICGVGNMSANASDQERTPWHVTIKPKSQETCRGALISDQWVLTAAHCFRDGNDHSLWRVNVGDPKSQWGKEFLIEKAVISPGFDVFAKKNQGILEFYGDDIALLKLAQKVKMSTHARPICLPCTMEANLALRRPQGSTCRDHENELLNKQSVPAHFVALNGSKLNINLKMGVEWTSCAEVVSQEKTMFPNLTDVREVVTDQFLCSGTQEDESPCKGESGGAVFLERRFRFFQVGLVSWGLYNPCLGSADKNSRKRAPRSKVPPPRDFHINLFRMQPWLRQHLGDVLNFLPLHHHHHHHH

human C2 L271A = molecular target: T2, human C2 L271A (human, UniProt P06681 21-752)
T2 sequence: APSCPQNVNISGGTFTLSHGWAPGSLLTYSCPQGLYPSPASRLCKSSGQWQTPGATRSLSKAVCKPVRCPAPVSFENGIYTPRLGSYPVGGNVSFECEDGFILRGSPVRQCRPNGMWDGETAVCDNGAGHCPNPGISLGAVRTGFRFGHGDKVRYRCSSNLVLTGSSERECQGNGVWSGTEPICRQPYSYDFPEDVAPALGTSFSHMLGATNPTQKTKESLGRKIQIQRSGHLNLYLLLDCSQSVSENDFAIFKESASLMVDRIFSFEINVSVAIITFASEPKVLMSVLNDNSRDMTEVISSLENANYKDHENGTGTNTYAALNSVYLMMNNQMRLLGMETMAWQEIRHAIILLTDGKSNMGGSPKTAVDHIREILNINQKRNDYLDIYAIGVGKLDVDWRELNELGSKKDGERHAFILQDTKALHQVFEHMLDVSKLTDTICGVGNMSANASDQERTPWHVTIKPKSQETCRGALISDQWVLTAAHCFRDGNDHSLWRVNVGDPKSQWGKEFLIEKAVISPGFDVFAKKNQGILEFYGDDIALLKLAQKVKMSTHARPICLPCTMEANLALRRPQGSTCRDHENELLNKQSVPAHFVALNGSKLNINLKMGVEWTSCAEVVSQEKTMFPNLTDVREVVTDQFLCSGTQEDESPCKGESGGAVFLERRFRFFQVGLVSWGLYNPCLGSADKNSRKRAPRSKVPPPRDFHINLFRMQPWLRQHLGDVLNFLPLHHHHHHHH

human C2 H435A = molecular target: T3, human C2 H435A (human, UniProt P06681 21-752)
T3 sequence: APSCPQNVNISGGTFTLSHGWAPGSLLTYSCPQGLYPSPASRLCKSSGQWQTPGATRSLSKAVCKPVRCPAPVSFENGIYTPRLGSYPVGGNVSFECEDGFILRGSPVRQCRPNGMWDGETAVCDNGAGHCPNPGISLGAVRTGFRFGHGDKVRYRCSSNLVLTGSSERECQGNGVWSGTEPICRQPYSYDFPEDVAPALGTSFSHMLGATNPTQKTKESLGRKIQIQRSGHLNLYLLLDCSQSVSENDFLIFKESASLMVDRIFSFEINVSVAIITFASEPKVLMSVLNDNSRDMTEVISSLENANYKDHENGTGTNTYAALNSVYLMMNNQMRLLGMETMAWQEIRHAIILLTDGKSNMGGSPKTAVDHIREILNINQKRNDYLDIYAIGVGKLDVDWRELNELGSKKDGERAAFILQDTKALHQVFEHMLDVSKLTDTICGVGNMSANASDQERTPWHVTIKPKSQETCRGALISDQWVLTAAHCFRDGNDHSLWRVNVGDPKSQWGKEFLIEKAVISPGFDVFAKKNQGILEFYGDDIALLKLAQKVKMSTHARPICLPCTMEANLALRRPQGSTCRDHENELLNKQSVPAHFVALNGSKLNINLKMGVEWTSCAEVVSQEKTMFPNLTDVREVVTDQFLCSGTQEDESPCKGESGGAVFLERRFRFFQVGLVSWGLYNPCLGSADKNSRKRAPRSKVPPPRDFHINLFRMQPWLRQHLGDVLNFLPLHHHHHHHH

human C2 D454A = molecular target: T4, human C2 D454A (human, UniProt P06681 21-752)
T4 sequence: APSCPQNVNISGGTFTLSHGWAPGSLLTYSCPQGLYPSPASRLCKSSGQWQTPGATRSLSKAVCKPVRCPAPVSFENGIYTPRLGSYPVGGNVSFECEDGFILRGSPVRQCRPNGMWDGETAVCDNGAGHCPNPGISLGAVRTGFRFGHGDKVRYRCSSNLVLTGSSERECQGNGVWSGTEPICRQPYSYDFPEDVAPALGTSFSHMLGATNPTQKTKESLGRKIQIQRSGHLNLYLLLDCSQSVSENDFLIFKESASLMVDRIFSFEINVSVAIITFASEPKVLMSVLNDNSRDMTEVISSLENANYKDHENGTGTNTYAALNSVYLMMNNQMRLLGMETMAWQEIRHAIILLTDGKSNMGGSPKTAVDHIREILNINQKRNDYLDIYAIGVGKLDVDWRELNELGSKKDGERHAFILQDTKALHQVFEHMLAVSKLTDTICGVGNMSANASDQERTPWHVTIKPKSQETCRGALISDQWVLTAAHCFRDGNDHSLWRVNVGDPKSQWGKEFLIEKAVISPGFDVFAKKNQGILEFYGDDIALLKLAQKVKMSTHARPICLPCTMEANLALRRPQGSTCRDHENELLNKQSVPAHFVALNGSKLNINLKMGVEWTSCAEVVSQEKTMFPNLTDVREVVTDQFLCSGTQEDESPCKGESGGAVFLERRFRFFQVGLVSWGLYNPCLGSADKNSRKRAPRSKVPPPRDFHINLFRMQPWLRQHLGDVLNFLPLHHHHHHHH

B1: RF16-226 (antibody, human IgG4 S228P, lambda)
heavy: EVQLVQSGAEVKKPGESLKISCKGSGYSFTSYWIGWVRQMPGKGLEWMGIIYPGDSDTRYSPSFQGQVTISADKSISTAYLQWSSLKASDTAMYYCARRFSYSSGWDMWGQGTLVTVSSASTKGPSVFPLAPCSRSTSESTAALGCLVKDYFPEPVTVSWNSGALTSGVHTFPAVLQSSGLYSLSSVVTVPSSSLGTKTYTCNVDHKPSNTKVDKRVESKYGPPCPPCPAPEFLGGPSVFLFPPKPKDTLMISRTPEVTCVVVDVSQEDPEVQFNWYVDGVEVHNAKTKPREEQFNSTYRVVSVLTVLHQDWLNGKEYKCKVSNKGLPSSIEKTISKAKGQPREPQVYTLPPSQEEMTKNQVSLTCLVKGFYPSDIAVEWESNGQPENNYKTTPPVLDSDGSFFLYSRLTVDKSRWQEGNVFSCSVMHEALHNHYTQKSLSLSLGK
light: SYELTQPPSVSVSPGQTARITCSGDALTSKYVAWYQQKSGLAPLLVIYEDTRRPSGIPAKFSGSSSGSVATLTISGAHGDDEADYYCYSTDASGHQRVFGGGTKLTVLSQPKAAPSVTLFPPSSEELQANKATLVCLISDFYPGAVTVAWKADGSPVKAGVETTKPSKQSNNKYAASSYLSLTPEQWKSHRSYSCQVTHEGSTVEKTVAPTECS
notes: pH-dependent anti-C2 antibody from a phage display library; also called WT
Binder B1 has a Kd (human C2 Q447A) of 5.4 nM, a Kd (human C2 L271A) of 10.8 nM and a Kd (human C2 H435A) of 24.3 nM. The Kd (human C2 D454A) was 247 nM.
